Experimental data published in PMC7920261.

How the values were obtained:
[1] = biological target: SARS-CoV-2 spike receptor-binding domain (RBD) (SARS-CoV-2) (UniProt P0DTC2); assay: ELISA
[2] = biological target: SARS-CoV-2 spike receptor-binding domain (RBD) (SARS-CoV-2) (UniProt P0DTC2); assay: BLI
[3] = biological target: SARS-CoV-1 spike receptor-binding domain (RBD) (SARS-CoV-1); assay: BLI

Substance: CTC-445, recombinant (designed binder)
- IC50 [1]: 1700 nM
- Kd [2]: 357 nM

Substance: CTC-445.2, recombinant (designed binder)
- IC50 [1]: 10.4 nM
- Kd [3]: 7100 nM
- Kd [2]: 21 nM

Substance: CTC-445.2d (designed binder)
- IC50 [1]: 0.7 nM
- Kd [3]: 587 nM
- Kd [2]: 3.5 nM
